Reference: patent publication US20210122813A1 (Kyowa Kirin, published 2021)
Where a chain is given by its changes, count along the chain named. Read-outs that look alike come from different tables or passages of the source.

How the values were obtained:
[1] = target: human BMP10 mature dimer (manufactured by R & D Systems, Inc., Cat #2926-BP) (human) (UniProt O95393); assay: SPR (Biacore T100), antibody captured by anti-mouse IgG, human BMP10 mature dimer as analyte
[2] = target: T1, human BMP10 mature dimer (manufactured by R & D Systems, Inc., Cat #2926-BP) (human, UniProt O95393 317-424); assay: SPR (Biacore T100), antibody captured by anti-human IgG, human BMP10 mature dimer as analyte
T1 construct: Bought product; also called human mature BMP10; mature BMP10
T1 sequence: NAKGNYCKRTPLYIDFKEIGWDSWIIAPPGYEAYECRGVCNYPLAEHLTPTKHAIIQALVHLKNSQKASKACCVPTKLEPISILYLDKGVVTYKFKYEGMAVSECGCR
Experimental: (§1) Further, subsequently, human mature BMP10 prepared at 5 concentrations by 3-fold serial dilution from 300 ng/mL was added thereto at a flow rate of 30 μL/min, and a binding reaction was monitored for 1 minute and a dissociation reaction was monitored for 30 minutes. The obtained sensorgram was analyzed using Bia Evaluation Software (manufactured by GE Healthcare Bio-Sciences Corporation), and the kinetic constant of each antibody was calculated.

[3] = target: T1, human BMP10 mature dimer (manufactured …); assay: SPR (Biacore T100), antibody captured by anti-human IgG, human BMP10 mature dimer as analyte; 100 ng/mL top concentration, 10 minutes dissociation (Example 13, Table 4)
Experimental: (§2) The binding activity of the anti-BMP10 antibody was measured as follows. An anti-human IgG antibody was immobilized on a CMS sensor chip (manufactured by GE Healthcare Bio-Sciences, Inc., BR100530) using Human Antibody Capture Kit (manufactured by GE Healthcare Bio-Sciences Corporation, Cat #BR-1008-39) according to the attached protocol. To a flow cell in which the anti-human IgG antibody was immobilized, the antibody prepared at 5 μg/mL was added at a flow rate of 10 μL/min for 10 seconds.
as §1, with “Subsequently, human” for “Further, subsequently, human”, “from the 100” for “from 300”, “for 10” for “for 30”, “calculated. The calculated association rate constant (ka), dissociation rate constant (kd), and dissociation constant [kd/ka=KD] of each antibody are shown in Table 4.” for “calculated.”

[4] = target: T1, human BMP10 mature dimer (manufactured …); assay: SPR (Biacore T100), antibody captured by anti-human IgG, human BMP10 mature dimer as analyte; remark: listed apart in the source
Experimental: as §2
as §1, with “Subsequently, human” for “Further, subsequently, human”, “from the 100” for “from 300”, “for 10” for “for 30”, “calculated. The calculated association rate constant (ka), dissociation rate constant (kd), and dissociation constant [kd/ka=KD] of each antibody are shown in Table 4.” for “calculated.”

Molecule: MAB2926 (clone No. 462732, R & D Systems, Inc.) (antibody)
- Kd [1]: 33.1 pM

B1: 18C1 chimeric antibody (antibody, V domains shown)
VH: QVQLKETGPDLVQLTQTLSITCTVSGFSLTTYNVHWVRQPPGKGLEWMGTMWNGGGIDYNSAFKSRLSISRDTSKSQVFLKMNSLQTDDTAKYFCARLGYYVDYWGHGIMVTVSS
VL: QFVLIQSNSMSTSLGSTVKLSCKRSTGNIGSSYVYWYQQHEGRSPTTMIYDGDKRPDGVPDRFSGSIDSSSNSAFLTINNVQIEDEAIYFCQSFSSGIKFIFGGGTKLTVL
notes: also called ch18C1 antibody; ch18C1
- Kd [2]: 2.62 pM
- kon [3]: 3.88e+07 M⁻¹ s⁻¹
- Kd [4]: 2.62 pM

B2: VLres16HVmut07 (antibody, V domains shown)
VH: QVQLQESGPDLVQPSQTLDITCTVSGFSLTTYNVHWVRQPPGKGLEWMGTMWNGGGIDYNSAFKDRLAISRDTSKNQVSLKMDSLQTDDTAKYFCARLGYYVDYWGQGILVTVSS
VL: B1 VL with V3A, N8D, L14A, N80D, I88V
notes: Humanized 18C1 antibody; also called hz18C1 antibody; anti-BMP10 humanized antibody
- Kd [4]: 3.19 pM

B3: VLres16HVmut10 (antibody, V domains shown)
VH: B2 VH with Q77E, S79F, K92V
VL: B1 VL with V3A, N8D, L14A, N80D, I88V
notes: as for B2
- Kd [4]: 2.88 pM

B4: VLres16VHres16 (antibody, V domains shown)
VH: B1 VH with L14P, S19D, S68A, Q77E, N83D, H107Q
VL: B1 VL with V3A, N8D, L14A, N80D, I88V
notes: Humanized 18C1 antibody; also called VLres16VHres16 antibody; hz18C1 antibody
- Kd [4]: 3.69 pM

B5: 11H10 chimeric antibody (antibody, V domains shown)
VH: B1 VH with T50A, I57T, G99A, Y100E, Y101G, V102F, H107Q, I109V
VL: DTVMTQSPASMSTSVGERVTVNCKASQSVGTVVAWFQQKPGQSPKRLIYLATNRHTGVPDRFTGSGFGRDFTLTISNVEAEDLAVYYCLQYGSIPFTFGSGTKLEIK
notes: also called ch11H10 antibody
- Kd [2]: 6.26 pM

B6: 12H3 chimeric antibody (antibody, V domains shown)
VH: B1 VH with T30S, T50A, D58N, L98F, Y101G, V102F, H107Q, I109V
VL: ETVMTQSPTSMSTSIGERVTLNCKASQSVGINVDWYQRTPGQSPKLLIHGASNRHTGVPDRFTGSGFGRDFTLTISNVEAEDLTIYYCLQYGSIPLTFGAGTKLELI
notes: also called ch12H3 antibody
- Kd [2]: 11.8 pM
